Laboratory results taken from the supplement of paper PMC12042874.
± gives the uncertainty stated by the source.

Assay: amyloid nucleation score (Sup35N fusion, yeast selection) (log enrichment); library NNK2; higher = more nucleation; inactive = no reads after selection
Procedure, shortened: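 Yeast lacking psi expressed peptides of 20 random codons fused to Sup35N, received 100 μM copper sulfate for 24 hours, and were then grown for 7 days at 30°C on medium lacking adenine and uracil. Illumina sequencing of input and output plasmid inserts provided the reads. Nucleation scores are DiMSum log enrichments of output over input, centred on the mode of non-aggregating sequences. Any sequence with under 100 input reads was excluded.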

Substance | amyloid nucleation score
TEAFKGLSLS | 0.184 ± 0.49
NEHCVNAGSRWMDGCVSCWY | 3.58 ± 0.082
GYDFT | inactive
NSLCLLNRQ | 0.241 ± 0.54
TMGKCITIGPAFIHNT | 1.51 ± 0.32
ILYFCRVLITVCMIVDMWGE | 0.333 ± 0.64
ISRQDRVQWWSYSSTRLA | 4.94 ± 0.077
CWFSTTGYDPLEPSFNLVLR | -1.58 ± 0.54
SHHLRKSFCPC | -0.279 ± 0.5
TGLCHPIGLPDRFRYIIRSL | -0.789 ± 0.55
FWPSQNYRHFLTHRGRRRRS | 0.552 ± 0.66
MISRSFPQSVFFLTDLWS | -0.667 ± 0.31
ARDCYEDDHKSKSARTVEHT | 0.232 ± 0.31
MRSYIQFVFCGDCRFFNWVI | 6.298 ± 0.05
TKEHYYR | 0.048 ± 0.5
NRKFHIMTFC | 0.415 ± 0.41
IMSSISRSNCVSLVV | inactive
CFNGLDLLILSTKMVSLLWY | -0.492 ± 1.1
RKVWLALVIFVCGCFIHYNG | -0.338 ± 0.64
INIHIFGWLIGLRGCM | -0.504 ± 1.1
RCWWAYQ | 1.11 ± 0.12
VDVVFTSSSTSLCSLSWSGV | 4.79 ± 0.099
IFSKVRLFFRRGMNFVMGEV | -1.64 ± 0.77
NLHEMLIGHGRQVRR | 1.42 ± 0.36
SAATPCVY | 0.778 ± 0.25

Substance | amyloid nucleation score
MKVVNCGCKHIFLRHCYALR | -0.605 ± 0.45
CGKYSS | 7.602 ± 0.041
FGILGCMYVNPNMNMIYWLW | 1.56 ± 0.24
VNSEISDYLHDGDGSRVRSI | -0.025 ± 0.79
GYCLMTFLISTCYG | 5.166 ± 0.031
HYRYEVDYLSELCIPDGMPM | -0.197 ± 0.24
SMLFRIRSLNVCSFAGLMRQ | 2.37 ± 0.1
GFVINFYLNGVALQRVILAF | inactive
NFRRLVMGSRNYSLFCGDKE | inactive
VSSVRCNRVAYNPASGRGRR | -0.124 ± 0.55
TDLTQF | -0.375 ± 1.1
DSPFLQNLMWNIFVGRIATM | -0.272 ± 0.31
FSTWSTLDSVACW | inactive
RGKDEDMLKSECHYVL | -0.883 ± 0.76
WVCNFVMIRLGIFEF | 1.78 ± 0.14
TDSAFLCHIAWTPFTVH | 0.866 ± 0.48
NNFYKWGESCLN | -0.9 ± 0.76
DNLLSPTSRKFRVDTILL | -0.256 ± 0.4
FVRQNVSFTLGKYYQWVVGM | -0.933 ± 0.24
RYRFVIMDDLIIMNAFNSIE | 4.48 ± 0.12
REDLLRNKTLL | -0.858 ± 0.44
FGLDLVFISFQARKCFVVMD | inactive
SMGFSRHRFKG | 0.164 ± 0.8
IPSWCFVIYSRNGYGFLHCT | inactive
WCVMLGLGSQGSRILRVLRM | 0.29 ± 0.29

Substance | amyloid nucleation score
ELFYDLSQTCQMCF | -0.759 ± 0.64
NLKDYIAFHNMSTAV | 2.22 ± 0.1
SAFVVQFVK | -0.31 ± 0.42
RWFDRV | 0.664 ± 0.31
SNSMLASIVNHPSVSVMFFV | 6.035 ± 0.047
VSIRDVVGQYSINRVICRSY | -0.774 ± 0.54
NCWYTFTL | 1.45 ± 0.12
SNVQGLACETTGMARGMWSE | 0.597 ± 0.17
MSAYR | -0.018 ± 0.65
NTAFADVDAF | -0.645 ± 0.55
KYLGLGAFCVTVDYQRVWDA | 0.879 ± 0.58
SKRRSSLQPS | -0.151 ± 0.31
CFLDGYWPGGELMKIGDYAL | 0.248 ± 0.28
LFLVTVFRCVFFSQGI | -1.9 ± 1.1
YKVCRVFLVIYIHDFEWVVD | inactive
GSCNVMGRCRIFGLGFWGIV | inactive
YKDEGINEPYTVRTVHKLTT | 0.215 ± 0.76
GLSIGYSKWETALGITLSNP | -0.864 ± 0.78
LDRFLSMRLFLPYVTNLRNH | -0.431 ± 0.64
WSGVSGNLT | 0.145 ± 0.4
PFGGSFVSAYSTKRLCHGSH | -1.2 ± 0.48
ARKKALGGNNLEVVLFLFSC | 4.93 ± 0.098
GRTGFFYLGAKYVSHEGAGK | inactive
YRLGLCGTFHINCVLINRDG | 5.2 ± 0.056
KFFLFDHNNNF | 0.699 ± 0.33

Substance | amyloid nucleation score
SVMPMRYLVCVILLGRRSRT | 0.765 ± 0.16
WLIMT | inactive
CFKMIFDQGSPKMRMHHIGV | 0.234 ± 0.54
WDSFLRLDFSMLSVLRREPR | 2.98 ± 0.18
ILLFELNAPFVEYSNAFG | 3 ± 0.045
SSTAVSQILH | inactive
KWGVAFNCSYNGVDNVNFWC | 6.807 ± 0.058
NGHFCWPFFMARHMELREE | -0.013 ± 0.56
HEYQFSYDFKFLFGSQIMYM | inactive
SRCMILFFRFIVSRYEVKSL | 1.77 ± 0.12
ARRCSFWYIISVQRF | inactive
AIFYDLMVNQRFVFTSFLWL | -0.14 ± 0.74
KNSYNVPEYLRLLLWGNGMC | inactive
FYGPFV | 0.729 ± 0.23
LLKLTYTSM | 7.032 ± 0.037
HEVVKFK | 0.016 ± 1.1
RGRCPCEVFNGSYVFVTHGD | inactive
SVDVKPVTQMTGTMVESTGS | 1.17 ± 0.28
KRIPSSWWFVGLVGITWRPA | 0.826 ± 0.29
HCYSPSKIRVNAIFLHIFL | inactive
IHGFNLSIRKMQKDGSDGQH | 0.635 ± 0.65
SPTRFFQLFQADGNSNRGDV | -0.519 ± 1
LVIMGVCGWSGL | 7.975 ± 0.038
IVLSSYLIWLD | inactive
PARLTNCGDPSY | -0.997 ± 0.3

Substance | amyloid nucleation score
RGCSVSTDDSVIRLTIAWQY | 0.33 ± 0.4
YWVSCHVALGMALKSVLVPC | 0.009 ± 0.76
HFKFYRNNYMTVIVHKACDV | 8.665 ± 0.083
WFVTNGCFYSLCLTHG | 5.996 ± 0.028
IGVIKGFYWHK | -0.343 ± 1.1
FYVYFVCEKIES | -0.076 ± 0.79
PICESWHFSLIVLMLFLNWE | inactive
VFLKQVEPEGGQYETFLVVV | -0.19 ± 1.1
RQVWLR | 0.854 ± 0.32
ACANYGRVVWSSWDW | 0.388 ± 0.39
SQFSPNDLLLGSWKSDCPWR | -0.917 ± 0.54
FFAKCELVSWDFDKSLGSSM | -0.437 ± 0.34
MFSFCRGSANSRLAQKDIVN | 0.023 ± 0.3
DSLNCGSRCKSAGDSNRWSL | 0.11 ± 0.65
VIRRGMFIQPAFAKMLSAWF | -0.231 ± 1
FSSEIRTLGQELVFGVISKA | -0.307 ± 0.76
TALFGISMVCSGRG | -0.583 ± 1.1
AGGEEIGGVSRS | -1.07 ± 0.49
GTYRNIRVWCRFRWVFENGC | 0.11 ± 0.74
FLISEDVFHSNSSVWEHISL | -0.173 ± 0.56
DLVYDCKGFCIRLLLG | -1.63 ± 1
VWTIPRS | 0.012 ± 0.5
LWGHLNHQWVCVSVMWVYLS | 3.64 ± 0.081
HEKGIKVVQGGQVYGITVEV | 0.093 ± 0.39
NSKVFS | 0.011 ± 1.1

Substance | amyloid nucleation score
NLNFDPGVLF | inactive
SSIGMVDIVKTLMGK | -0.089 ± 0.61
HSFMSRVARVSWMEMVVTLA | 1.26 ± 0.41
TCGDGPATYTQT | 0.132 ± 0.38
NRRNLSVGYSKVHS | 0.443 ± 0.3
IIKLGESNPKSPFGTLYYGF | -0.213 ± 1.1
ANDSSNYEYVILMRPNVIEV | -0.14 ± 0.49
FRFLDNELQNRGRRMYQLGY | -0.465 ± 1
LSCCYDDHRLQGRCGSGRFH | 0.946 ± 0.27
GCYTET | 0.729 ± 0.52
YMRMKW | 3.46 ± 0.079
DVKIVYSKTDRWRMGRSPES | 1.55 ± 0.2
YSELIVTVIYKSTSSVRISC | -0.285 ± 0.33
GWSSSHVWVGLNS | 2.44 ± 0.21
CANIMMKSKVYKFNERRSVK | -0.873 ± 0.62
TKICWGSCRHLDLAFFLFLY | inactive
LKTIMCFCQIYLFNSDPVHF | 3.37 ± 0.11
VHTMY | -0.299 ± 1.1
KYTCLVMAL | 1.11 ± 0.28
NDSFSFDSRCVVDRFGVAKK | -0.612 ± 0.76
TAWSMNVHVSANVSTCRPLR | 1.87 ± 0.2
NSESYRCERY | -0.567 ± 0.49
GVVTFV | 0.157 ± 0.76
LVLYGFYVTSDLRWSLSWKM | 0.766 ± 0.2
RLYTREQLRTLWLSYMFLRK | -0.357 ± 0.29

Substance | amyloid nucleation score
FCRNIKDYLDYCHRGVGPKK | 0.176 ± 0.76
RNFPMVFCAMV | inactive
CNGYTKRRYTRYSYKWFAVA | -0.15 ± 0.45
SAFVSVCVSDRDRMGCYYSS | inactive
RTMLSGLLGYRSRSLADSPF | -0.199 ± 0.76
WSFVGSTLSRDGSHNQDVHW | 3.58 ± 0.098
VMIMVEVNPWGRCGRRRERS | 9.613 ± 0.052
GRVVSSFSLKSDNFMMYFRI | -1.18 ± 1.1
LVACMASDITNNMSRLYHLI | -1.79 ± 1.1
NYHPFLVF | -0.909 ± 0.54
PRRMNRGYQNDYFISTVFSV | -0.711 ± 0.64
FLMSVTYCKGFGRTEECACC | -0.28 ± 0.33
RTLNGADFS | 0.486 ± 0.8
YFTWQHLRNSRMWV | 3.34 ± 0.11
KVFRSVGMFVCP | 1 ± 0.29
GGNFYGGEYDMGGGSIRHYG | inactive
VNFFNLINRRGTPNRWFYAS | 0.201 ± 1
SLMLGVYHLFTCGTQTRCYS | -0.71 ± 1
MHMAYSLNMSHSHIRAKAGM | 1.06 ± 0.27
SNCVCSRIVCCVRMGTGL | 9.908 ± 0.042
VGTLNGFRRFGRSGKFNILE | -0.195 ± 0.27
LGNIHIWTSV | -1.53 ± 0.49
